For experiment [1], the target named is G2F-Rituximab (galactosylated fucosylated glycoform of rituximab) (human). Description: SPR, 256 to 8 nM in 2-fold steps. On the technique in general: Surface plasmon resonance follows binding to a sensor surface in real time, without labels.
The target in experiment [2] is G2-Rituximab (galactosylated afucosylated glycoform of rituximab) (human). Briefly: SPR, 256 to 8 nM in 2-fold steps.

Regarding “tetrameric FcγRIIIA (from UniProt P08637 17-208) (receptor)”, the KD1 was 55.2 nM in experiment [1] and 29.9 nM in experiment [2]. For the same substance, the KD2 is 2.29 nM in experiment [1] and 2.3 nM in experiment [2].

For the origin of these results see patent US20240150494A1.
